# Measurements: patent publication US11773160
# What was measured:
# [1] = molecular target: trimeric IL-2 receptor on HEK-Blue IL-2 reporter cells (UniProt P01589); test: cell-based or functional assay
# [2] = molecular target: IL-2R on murine splenocytes (C57BL/6); test: cell-based or functional assay
# Sequence of trimeric IL-2 receptor on HEK-Blue IL-2 reporter cells (P01589 22-272 limits assumed, chain 1 of 3): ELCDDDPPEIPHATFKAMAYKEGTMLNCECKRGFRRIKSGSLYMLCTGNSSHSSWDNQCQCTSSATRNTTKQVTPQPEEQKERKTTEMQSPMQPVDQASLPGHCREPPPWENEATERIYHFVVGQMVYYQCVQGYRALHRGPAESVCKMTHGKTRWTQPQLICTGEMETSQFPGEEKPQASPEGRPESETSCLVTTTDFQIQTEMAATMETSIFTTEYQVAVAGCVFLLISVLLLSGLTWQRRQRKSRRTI
# Sequence of trimeric IL-2 receptor on HEK-Blue IL-2 reporter cells (P14784 27-551 limits assumed, chain 2 of 3, further chain): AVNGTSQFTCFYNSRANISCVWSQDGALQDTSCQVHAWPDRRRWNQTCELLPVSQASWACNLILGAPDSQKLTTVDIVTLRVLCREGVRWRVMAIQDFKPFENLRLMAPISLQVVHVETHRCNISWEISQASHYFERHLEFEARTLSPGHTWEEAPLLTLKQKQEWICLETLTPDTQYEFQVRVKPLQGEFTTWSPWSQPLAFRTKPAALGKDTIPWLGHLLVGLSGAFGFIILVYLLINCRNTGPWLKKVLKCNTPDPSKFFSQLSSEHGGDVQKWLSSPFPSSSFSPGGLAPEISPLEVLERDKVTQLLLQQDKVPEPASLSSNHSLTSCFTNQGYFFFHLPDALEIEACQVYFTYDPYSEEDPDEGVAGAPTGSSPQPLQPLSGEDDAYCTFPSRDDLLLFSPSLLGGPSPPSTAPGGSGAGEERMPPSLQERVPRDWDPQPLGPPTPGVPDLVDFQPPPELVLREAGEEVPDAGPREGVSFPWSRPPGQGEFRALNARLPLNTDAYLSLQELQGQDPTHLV
# Sequence of trimeric IL-2 receptor on HEK-Blue IL-2 reporter cells (P31785 23-369 limits assumed, chain 3 of 3, further chain): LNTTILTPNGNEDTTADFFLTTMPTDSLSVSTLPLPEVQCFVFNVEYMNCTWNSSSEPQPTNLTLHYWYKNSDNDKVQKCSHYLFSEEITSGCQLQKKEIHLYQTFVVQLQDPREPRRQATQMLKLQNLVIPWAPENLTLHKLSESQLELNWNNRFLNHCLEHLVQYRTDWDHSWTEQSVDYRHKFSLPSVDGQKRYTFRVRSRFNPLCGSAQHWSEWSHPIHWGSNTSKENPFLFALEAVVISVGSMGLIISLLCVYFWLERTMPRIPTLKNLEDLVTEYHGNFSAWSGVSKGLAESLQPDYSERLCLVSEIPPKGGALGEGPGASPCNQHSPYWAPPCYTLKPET
substance,measurement,setting,value
Proleukin (aldesleukin) (from UniProt P60568 22-153) (ligand),"EC50 (M), SEAP of HEK-Blue IL-2 reporter cells",[1],4.28e-12 M
same,"EC50 CD8 cells (nM), pSTAT5 MFI",[2],4.1 nM
same,"EC50 NK cells (nM), pSTAT5 MFI",[2],1.4 nM
same,"EC50 Treg cells (nM), pSTAT5 MFI",[2],< 0.016 nM
